Assay results published in patent publication US20260029420A1, “ANTI-CB2 ANTIBODIES AND THEIR USE IN A FLOW CYTOMETRY ASSAY TO MEASURE CELL SURFACE CB2 EXPRESSION” (Hoffmann-La Roche Inc., priority 2022, published 2026).

What was measured:
[1] = test system: pANITA3.1 ratGIPR (DB388); test: Immunoprecipitation from whole cell lysates; format: binding, rat; set-up: key to Immunoprecipitation signal intensity: “−” no signal; “+”-“+++++” signal intensity; “+”-“+++++” signal intensity; “+”-“+++++” signal intensity; “+”-“+++++” signal intensity; “+”-“+++++” signal intensity
Procedure: (§1) The positive clones (Table 1) were further characterized by immunofluorescence (IF; Table 2), Western Blot (Table 3, 1) and Immune precipitation (Table 4, 2) on full length hCB2, hCB1, mCB2 stable-transfected CHO-cell lines in addition to the 2 pANITA constructs.
(§2) For immunoprecipitation (IP), whole cell lysates were incubated with the respective antibodies. IP was performed according to established protocols and subsequent western blot as described herein above.

CHODukx CRE hCB2 Cl.90 = target: T1, CHODukx CRE hCB2 Cl.90 (Homo sapiens, UniProt P34972); test: Immunoprecipitation from whole cell lysates; format: binding; set-up: key: “−” no signal; “+”-“++++” signal intensity; “+”-“++++” signal intensity; “+”-“++++” signal intensity; “+”-“++++” signal intensity; settings: CHODukx CRE hCB2 Cl.90 lysate
T1 construct: expressed in transfected cells
Procedure: as §1, §2

[2] = target: T2, cell surface CB2 on B-cells (Homo sapiens, UniProt P34972); test: Flow cytometry detection of baseline cell surface CB2 on B-cells in untreated whole blood; format: binding; settings: increasing antibody concentrations
T2 construct: measured in whole blood samples from nine different healthy human volunteers of working-age; endogenous in cells; host or cells: B-cells (and basophils and other leukocytes) in human whole blood
Procedure: FIG. 5A and FIG. 5B: Comparison of different anti-hCB2 antibodies in detecting cell surface CB2 expression on B-cells. FIG. 5A: Flow cytometric analysis with increasing concentrations of hCB2 antibody 1/622 (black dots) and hCB2 clone 352110 (R&D Systems; dark rectangle). A fluorescence minus one (FMO) serves as control as well as the secondary PE labeled antibody alone (0 μg antibody/sample). FIG. 5B: Flow cytometric analysis with increasing concentrations of mouse IgG3 isotype control clone B10 (SBA; open dots), hCB2 antibody 1/622 (black dots), mouse IgG2b isotype control clone 26114 (R&D Systems; open rectangles) and hCB2 clone 352110 (R&D Systems; dark rectangles). The secondary PE labeled antibody alone serves as 0 μg antibody/sample control.
Detection of baseline expression of cell surface CB2 on B-cells was assessed for clone 1/622 and compared to a commercially available hCB2 antibody (R&D Systems; clone 352110) (5). The flow cytometry experiment was performed as described in Example 3 yet using untreated whole blood samples and using increasing concentrations of the respective anti-human CB2 antibody. […]
For determination of cell surface expression of CB2 on B-cells, median fluorescent intensity (MFI) was analyzed by gating around the CD45^+ CD3^− CD14^− CD19^+ B-cells (see gating strategy in FIG. 6A to FIG. 6E) and acquiring a minimum of 2000 events in this gate (FIG. 6F). […]

CHODukx negative = test: Immunofluorescence on methanol-fixed cells, negative control; format: binding; set-up: key to immunofluorescence signal intensity: “−” no fluorescence detected; “+”-“++++” intensity of fluorescent signal; “+”-“++++” intensity of fluorescent signal; “+”-“++++” intensity of fluorescent signal; “+”-“++++” intensity of fluorescent signal
Procedure: as §1
For IF analysis, methanol-fixed cells were incubated for 20 min in a humid chamber at 37° C. with the respective hCB2 and mCB2 clones. After rinsing twice and washing for 15 min in PBS, 125 μg/ml FITC-conjugated […] anti-mouse IgG antibodies (RAM/IgG (H+L)/FITC, Nordic
Immunological Laboratories) diluted in PBS was added and incubated for 20 min in a humid chamber at 37° C. Cells were rinsed twice and washed for 15 min in PBS, mounted with mounting solution (50% PBS 50% glycerol) and covered with a coverslip. Staining was assessed by fluorescence microscopy on a Leica CTR500 fluorescence microscope and a Leica DFC300 FX digital camera.

T2 sequence (P34972 whole entry): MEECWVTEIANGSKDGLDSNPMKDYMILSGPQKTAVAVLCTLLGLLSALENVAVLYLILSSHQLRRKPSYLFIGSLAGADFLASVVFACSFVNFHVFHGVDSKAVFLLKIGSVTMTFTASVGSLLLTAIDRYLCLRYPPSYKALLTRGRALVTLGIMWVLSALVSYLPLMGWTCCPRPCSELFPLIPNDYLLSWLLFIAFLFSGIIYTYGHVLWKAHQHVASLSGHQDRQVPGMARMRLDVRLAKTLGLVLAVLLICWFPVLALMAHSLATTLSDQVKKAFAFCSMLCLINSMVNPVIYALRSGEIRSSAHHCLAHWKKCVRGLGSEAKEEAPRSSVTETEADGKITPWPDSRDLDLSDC
T1 sequence (P34972 whole entry): as above

B1: hCB2-1/622: murine IgG3 monoclonal anti-human CB2 antibody, VH SEQ ID NO: 1, VL SEQ ID NO: 2, HC SEQ ID NO: 3, LC SEQ ID NO: 4 (antibody)
heavy: EVQLQQSGPELVKPGASVKISCKTSGYTFTEYTMHWVRQSHGKSLEWIGGIDRYNGDTYYNQKFKDKATLTVDRSSSTAYMELRSLTSEDSAVYFCARNGAMDYWGQGISVTVSSATTTAPSVYPLVPGCSDTSGSSVTLGCLVKGYFPEPVTVKWNYGALSSGVRTVSSVLQSGFYSLSSLVTVPSSTWPSQTVICNVAHPASKTELIKRIEPRIPKPSTPPGSSCPPGNILGGPSVFIFPPKPKDALMISLTPKVTCVVVDVSEDDPDVHVSWFVDNKEVHTAWTQPREAQYNSTFRVVSALPIQHQDWMRGKEFKCKVNNKALPAPIERTISKPKGRAQTPQVYTIPPPREQMSKKKVSLTCLVTNFFSEAISVEWERNGELEQDYKNTPPILDSDGTYFLYSKLTVDTDSWLQGEIFTCSVVHEALHNHHTQKNLSRSPGK
light: DVVMTQTPLSLPVSLGDQASISCRSSQSLVHSNGNTYLHWFLQKPGQSPKLLIYKVSIRFSGVPDRFSGSGSGTDFTLKISRVEAEDLGVYFCSQSTHVPPLTFGAGTKLELKRADAAPTVSIFPPSSEQLTSGGASVVCFLNNFYPKDINVKWKIDGSERQNGVLNSWTDQDSKDSTYSMSSTLTLTKDEYERHNSYTCEATHKTSTSPIVKSFNRNEC
Immunoprecipitation signal intensity ([1]; pANITA3.1 ratGIPR (DB388) lysate): −
immunoprecipitation cross reactivity ([1]; rat GIPR): no cross reactivity
Immunoprecipitation signal intensity (CHODukx CRE hCB2 Cl.90): +
Median fluorescence intensity on B-cells [2]: dose-dependent increase
immunofluorescence signal intensity (CHODukx negative; CHODukx negative cells): −
immunofluorescence staining (CHODukx negative; negative control cells): no staining
